The values below come from paper PMC10239819.

The target of one assay is Factor B (Homo sapiens) (UniProt P00751). To be noted: cited from earlier work.
In assay [1] the target is C3b prepared from human EDTA plasma (human).
Assay [2] shares this target. This is another data set of the same source.
Assay [3] has as its target C3bB, the AP C3 pro-convertase (factor B complexed with C3b) (human).

Factor B (Homo sapiens), sequence (P00751 26-259): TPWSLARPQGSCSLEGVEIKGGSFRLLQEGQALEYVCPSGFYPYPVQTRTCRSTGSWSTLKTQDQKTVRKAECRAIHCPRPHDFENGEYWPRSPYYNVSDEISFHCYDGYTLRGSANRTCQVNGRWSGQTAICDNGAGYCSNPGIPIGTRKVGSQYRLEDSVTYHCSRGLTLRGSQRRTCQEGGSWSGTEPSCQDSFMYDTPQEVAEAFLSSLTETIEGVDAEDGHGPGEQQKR
tag-free recombinant human factor D (mature FD), sequence (P00746 26-253): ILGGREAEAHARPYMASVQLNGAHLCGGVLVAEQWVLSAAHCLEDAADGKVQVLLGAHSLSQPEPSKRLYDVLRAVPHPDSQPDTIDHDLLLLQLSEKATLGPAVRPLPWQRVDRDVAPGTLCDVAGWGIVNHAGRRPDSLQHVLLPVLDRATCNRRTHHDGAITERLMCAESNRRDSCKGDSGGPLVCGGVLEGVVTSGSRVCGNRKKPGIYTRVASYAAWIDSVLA
C3b C3b, sequence (P01024 566-670): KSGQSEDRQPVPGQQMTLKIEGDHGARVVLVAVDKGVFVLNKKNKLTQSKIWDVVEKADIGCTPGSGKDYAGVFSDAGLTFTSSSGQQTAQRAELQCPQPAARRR

As to C3b C3b (from UniProt P01024), the Kd in the assay with Factor B (Homo sapiens) was 1400 nM.

On to “human, serum-derived, purified factor B (natural protein)”, for which the enhancement of the cleavage of FB by FD (ratio of kobs/[E]T on C3bB and on free FB; SDS-PAGE densitometry of Bb, 37 °C) in assay [1] came out at 2e+07 fold. Moreover, in assay [2], the enhancement of the cleavage of FB by MASP-1cf (ratio of kobs/[E]T on C3bB and on free FB; SDS-PAGE densitometry of Bb, 37 °C) is 100 fold.

With “tag-free recombinant human factor D (mature FD) (from UniProt P00746 26-253) (enzyme)”, the kobs/[E]T (estimate of kcat/KM) of the cleavage of C3bB (1.1 uM) by FD (0.25 nM), SDS-PAGE densitometry of Bb, 37 °C in assay [3] is 6.5e+06 M⁻¹ s⁻¹.

For orientation: Kd means the concentration at which binding is half-saturated.
